In patent publication US20180142038A1:

How the values were obtained:
[1] = target: Ab-A lot 9 (load; eluate from a ceramic hydroxyapatite column); experiment: AGV HTRF assay as in Example 6, load of the Ab-1 NHS Sepharose column
[2] = target: Ab-A lot 9 (load; eluate from a ceramic hydroxyapatite column); experiment: AGV HTRF assay as in Example 6, load of the Ab-1 Streptavidin Plus Ultralink column
[3] = target: Ab-A lot 9, pooled flow-through of the Ab-1 functionalized GE NHS-activated Sepharose 4 Fast Flow resin; experiment: AGV HTRF assay as in Example 6, pooled flow-through of the Ab-1 NHS Sepharose column
Ab-A lot 1 = experiment: AGV HTRF assay (antibody 3 nM, antigen 1 nM, Eu anti-rabbit Fc donor, anti-human XL665 acceptor), signal relative to Ab-A lot 2
[4] = target: Ab-A lot 9, pooled flow-through of the Ab-1 functionalized Pierce Streptavidin Plus Ultralink resin; experiment: AGV HTRF assay as in Example 6, pooled flow-through of the Ab-1 Streptavidin Plus Ultralink column

- Glycovariant signal in Load (POC) [1]: 9.3 POC
- Glycovariant signal in Load (POC) [2]: 9.3 POC
- Glycovariant signal in Flow-Through (POC) [3]: 6.3 POC
- percentage of control (POC), against Ab-A lot 2 (% of control (POC)) (Ab-A lot 1): 25
- Glycovariant signal in Flow-Through (POC) [4]: 1.2 POC
B1: Ab1 (antibody, V domains shown)
VH: QEQLVESGGGLVQPGASLTLTCTASGFSFSNTNYMCWVRQAPGRGLEWVGCMPVGFIASTFYATWAKGRSAISKSSSTAVTLQMTSLTVADTATYFCARESGSGWALNLWGQGTLVTVSS
VL: DPVLTQTPSPVSAAVGGTVTISCQASESVESGNWLAWYQQKPGQPPKLLIYYTSTLASGVPSRFKGSGSGAHFTLTISGVQCDDAATYYCQGAFYGVNTFGGGTEVVVKR
